# Assay results published in the supplement of paper PMC9112550, “Optimization of the antimicrobial peptide Bac7 by deep mutational scanning” (BMC Biology, 2022).
# Test system: Escherichia coli TOP10
# Test: shrunken log2 fold change of peptide-encoding DNA abundance (4.5 h post-induction vs induction); higher = less antimicrobial activity (less host growth inhibition)
# Conditions: time post-induction: 4.5 h; library: site-saturation at positions 5, 18, 19, 20
# 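Note: peptides expressed intracellularly from a pBAD plasmid library in pooled LB shake-flask culture, induced with 0.3% L-arabinose, DNA abundance read by NGS, three biological replicates, DESeq2 with apeglm shrinkage.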
row,Sequence,shrunken log2 fold change
1,RRIRWRPPRLPRPRPRPQYLPRP,-0.12
2,RRIRLRPPRLPRPRPRPKGTPRP,0.0017
3,RRIRGRPPRLPRPRPRPNGIPRP,0.287
4,RRIRNRPPRLPRPRPRPMPTPRP,0.257
5,RRIRMRPPRLPRPRPRPIYKPRP,-0.0684
6,RRIRERPPRLPRPRPRPTPCPRP,0.0922
7,RRIRHRPPRLPRPRPRPYEMPRP,-0.383
8,RRIRMRPPRLPRPRPRPFLFPRP,0.0343
9,RRIRDRPPRLPRPRPRPVHDPRP,0.19
10,RRIRWRPPRLPRPRPRPQSIPRP,-0.584
11,RRIRMRPPRLPRPRPRPPDQPRP,2.01
12,RRIRIRPPRLPRPRPRPWDPPRP,-0.0252
13,RRIRNRPPRLPRPRPRPCYSPRP,-0.596
14,RRIRWRPPRLPRPRPRPDCNPRP,-0.0173
15,RRIRMRPPRLPRPRPRPNREPRP,0.0182
16,RRIRWRPPRLPRPRPRPCVRPRP,0.0233
17,RRIRIRPPRLPRPRPRPDQPPRP,0.022
18,RRIRNRPPRLPRPRPRPDKTPRP,-0.0594
19,RRIRKRPPRLPRPRPRPEDGPRP,1.9
20,RRIRIRPPRLPRPRPRPSEQPRP,-0.0663
21,RRIRARPPRLPRPRPRPCEIPRP,0.196
22,RRIRIRPPRLPRPRPRPVNKPRP,-0.426
23,RRIRDRPPRLPRPRPRPSRCPRP,0.346
24,RRIRPRPPRLPRPRPRPMDSPRP,-0.0149
25,RRIRMRPPRLPRPRPRPCKNPRP,4.11

row,Sequence,shrunken log2 fold change
1,RRIRRRPPRLPRPRPRPFNMPRP,-0.362
2,RRIRGRPPRLPRPRPRPKRNPRP,0.624
3,RRIRTRPPRLPRPRPRPKHVPRP,-0.658
4,RRIRPRPPRLPRPRPRPLHRPRP,-0.284
5,RRIRYRPPRLPRPRPRPRKMPRP,-0.178
6,RRIRLRPPRLPRPRPRPSHTPRP,-0.258
7,RRIRMRPPRLPRPRPRPCSDPRP,0.0242
8,RRIRARPPRLPRPRPRPTGAPRP,0.906
9,RRIRERPPRLPRPRPRPTRTPRP,0.374
10,RRIRDRPPRLPRPRPRPVSHPRP,0.00713
11,RRIRWRPPRLPRPRPRPGWRPRP,0.617
12,RRIRERPPRLPRPRPRPVCFPRP,-0.173
13,RRIRRRPPRLPRPRPRPSRRPRP,-0.0701
14,RRIRQRPPRLPRPRPRPDQGPRP,-0.0223
15,RRIRVRPPRLPRPRPRPPPTPRP,0.933
16,RRIRCRPPRLPRPRPRPVYPPRP,-0.559
17,RRIRSRPPRLPRPRPRPLNPPRP,-0.0273
18,RRIRYRPPRLPRPRPRPRRIPRP,0.014
19,RRIRYRPPRLPRPRPRPFIHPRP,-1.54
20,RRIRLRPPRLPRPRPRPMRFPRP,0.0595
21,RRIRNRPPRLPRPRPRPRWEPRP,0.291
22,RRIRVRPPRLPRPRPRPYSHPRP,-1.25
23,RRIRIRPPRLPRPRPRPQMSPRP,-0.0696
24,RRIRYRPPRLPRPRPRPYDKPRP,-1.24
25,RRIRPRPPRLPRPRPRPDHPPRP,-0.147

row,Sequence,shrunken log2 fold change
1,RRIRTRPPRLPRPRPRPLVKPRP,-0.0793
2,RRIRCRPPRLPRPRPRPECGPRP,0.436
3,RRIRLRPPRLPRPRPRPDVVPRP,0.0387
4,RRIRFRPPRLPRPRPRPCHPPRP,1.35
5,RRIRHRPPRLPRPRPRPSLRPRP,-0.244
6,RRIRRRPPRLPRPRPRPFDAPRP,0.44
7,RRIRSRPPRLPRPRPRPYMYPRP,-0.466
8,RRIRARPPRLPRPRPRPLSCPRP,0.214
9,RRIRWRPPRLPRPRPRPRDVPRP,0.333
10,RRIRVRPPRLPRPRPRPWICPRP,-0.358
11,RRIRIRPPRLPRPRPRPTYVPRP,-0.0344
12,RRIRNRPPRLPRPRPRPDIVPRP,-0.0101
13,RRIRARPPRLPRPRPRPDNPPRP,0.0396
14,RRIRGRPPRLPRPRPRPWLAPRP,0.0824
15,RRIRYRPPRLPRPRPRPIENPRP,-0.0122
16,RRIRIRPPRLPRPRPRPGPCPRP,0.255
17,RRIRPRPPRLPRPRPRPSAGPRP,0.243
18,RRIRTRPPRLPRPRPRPDGFPRP,-0.0487
19,RRIRCRPPRLPRPRPRPEPAPRP,0.971
20,RRIRCRPPRLPRPRPRPFIYPRP,-0.808
21,RRIRPRPPRLPRPRPRPKMDPRP,0.0116
22,RRIRKRPPRLPRPRPRPQKAPRP,-0.0155
23,RRIRQRPPRLPRPRPRPGDAPRP,1.65
24,RRIRGRPPRLPRPRPRPNGWPRP,0.477
25,RRIRHRPPRLPRPRPRPDGTPRP,-0.0362

row,Sequence,shrunken log2 fold change
1,RRIRYRPPRLPRPRPRPTKTPRP,-0.0705
2,RRIRRRPPRLPRPRPRPACPPRP,0.353
3,RRIRHRPPRLPRPRPRPRMHPRP,-0.0289
4,RRIRIRPPRLPRPRPRPPAKPRP,0.309
5,RRIRMRPPRLPRPRPRPFYYPRP,-0.527
6,RRIRNRPPRLPRPRPRPSTDPRP,-0.0474
7,RRIRRRPPRLPRPRPRPQWQPRP,0.435
8,RRIRTRPPRLPRPRPRPPMIPRP,-0.44
9,RRIRDRPPRLPRPRPRPFTMPRP,-0.0235
10,RRIRFRPPRLPRPRPRPIHDPRP,-0.211
11,RRIRYRPPRLPRPRPRPINRPRP,-0.018
12,RRIRHRPPRLPRPRPRPTWGPRP,0.0618
13,RRIRNRPPRLPRPRPRPNMFPRP,-0.00614
14,RRIRWRPPRLPRPRPRPPTWPRP,0.802
15,RRIRNRPPRLPRPRPRPIMIPRP,-0.363
16,RRIRLRPPRLPRPRPRPWIKPRP,-0.187
17,RRIRFRPPRLPRPRPRPEVAPRP,-0.088
18,RRIRYRPPRLPRPRPRPPHNPRP,-0.275
19,RRIRPRPPRLPRPRPRPMLGPRP,0.252
20,RRIRQRPPRLPRPRPRPKCTPRP,-0.0317
21,RRIRFRPPRLPRPRPRPNEGPRP,-0.0411
22,RRIRLRPPRLPRPRPRPKIDPRP,-0.042
23,RRIRLRPPRLPRPRPRPGNTPRP,-0.242
24,RRIRQRPPRLPRPRPRPKITPRP,-0.0282
25,RRIRQRPPRLPRPRPRPKPRPRP,0.309

row,Sequence,shrunken log2 fold change
1,RRIRARPPRLPRPRPRPIKMPRP,0.0129
2,RRIRCRPPRLPRPRPRPHAIPRP,-0.139
3,RRIRSRPPRLPRPRPRPMSEPRP,0.0489
4,RRIRYRPPRLPRPRPRPSSQPRP,-0.261
5,RRIRVRPPRLPRPRPRPQMWPRP,0.0478
6,RRIRDRPPRLPRPRPRPWMKPRP,-0.0188
7,RRIRCRPPRLPRPRPRPNLFPRP,-0.932
8,RRIRMRPPRLPRPRPRPCAAPRP,2.26
9,RRIRCRPPRLPRPRPRPSECPRP,-0.0818
10,RRIRDRPPRLPRPRPRPLCEPRP,0.715
11,RRIRQRPPRLPRPRPRPLDEPRP,0.0698
12,RRIRTRPPRLPRPRPRPTWNPRP,-0.0206
13,RRIRDRPPRLPRPRPRPYGDPRP,-0.0996
14,RRIRQRPPRLPRPRPRPPCAPRP,0.293
15,RRIRTRPPRLPRPRPRPYCDPRP,-0.512
16,RRIRSRPPRLPRPRPRPQAHPRP,-0.0418
17,RRIRKRPPRLPRPRPRPYVYPRP,-0.154
18,RRIRHRPPRLPRPRPRPFIRPRP,0.00659
19,RRIRLRPPRLPRPRPRPPHRPRP,0.182
20,RRIRHRPPRLPRPRPRPAEYPRP,0.034
21,RRIRKRPPRLPRPRPRPKIGPRP,0.295
22,RRIRRRPPRLPRPRPRPQRNPRP,0.245
23,RRIRIRPPRLPRPRPRPTRPPRP,0.763
24,RRIRLRPPRLPRPRPRPRWWPRP,0.13
25,RRIRFRPPRLPRPRPRPFCFPRP,-0.343

row,Sequence,shrunken log2 fold change
1,RRIRTRPPRLPRPRPRPGQLPRP,0.226
2,RRIRPRPPRLPRPRPRPLDQPRP,0.0885
3,RRIRQRPPRLPRPRPRPKGYPRP,-0.00146
4,RRIRNRPPRLPRPRPRPYRTPRP,-0.268
5,RRIRKRPPRLPRPRPRPKKTPRP,0.0396
6,RRIRVRPPRLPRPRPRPDAQPRP,-0.136
7,RRIRMRPPRLPRPRPRPEWAPRP,1.36
8,RRIRERPPRLPRPRPRPTANPRP,-0.154
9,RRIRTRPPRLPRPRPRPALSPRP,-0.0737
10,RRIRHRPPRLPRPRPRPLKWPRP,-0.0708
11,RRIRFRPPRLPRPRPRPQDDPRP,-0.493
12,RRIRYRPPRLPRPRPRPLSHPRP,-0.678
13,RRIRSRPPRLPRPRPRPRKYPRP,-0.312
14,RRIRLRPPRLPRPRPRPMAGPRP,0.208
15,RRIRCRPPRLPRPRPRPKDKPRP,0.401
16,RRIRLRPPRLPRPRPRPEGDPRP,0.0662
17,RRIRPRPPRLPRPRPRPLPGPRP,0.02
18,RRIRQRPPRLPRPRPRPKLIPRP,-0.0954
19,RRIRWRPPRLPRPRPRPHGCPRP,0.0126
20,RRIRKRPPRLPRPRPRPHAQPRP,0.133
21,RRIRARPPRLPRPRPRPRMDPRP,0.356
22,RRIRRRPPRLPRPRPRPNRLPRP,0.523
23,RRIRWRPPRLPRPRPRPWDIPRP,-0.309
24,RRIRFRPPRLPRPRPRPFNKPRP,-0.729
25,RRIRLRPPRLPRPRPRPVSRPRP,0.0317
